Consider one molecule from patent US20110034396A1.

Assay in all cases: cell-based or functional assay
For assay [1], the target named is bovine serum albumin (bovine) (UniProt P02769).
In the next assay the target is collagen type IV.
In another assay the target is fibronectin.

UniProt P02769, sequence (P02769 25-607 limits assumed): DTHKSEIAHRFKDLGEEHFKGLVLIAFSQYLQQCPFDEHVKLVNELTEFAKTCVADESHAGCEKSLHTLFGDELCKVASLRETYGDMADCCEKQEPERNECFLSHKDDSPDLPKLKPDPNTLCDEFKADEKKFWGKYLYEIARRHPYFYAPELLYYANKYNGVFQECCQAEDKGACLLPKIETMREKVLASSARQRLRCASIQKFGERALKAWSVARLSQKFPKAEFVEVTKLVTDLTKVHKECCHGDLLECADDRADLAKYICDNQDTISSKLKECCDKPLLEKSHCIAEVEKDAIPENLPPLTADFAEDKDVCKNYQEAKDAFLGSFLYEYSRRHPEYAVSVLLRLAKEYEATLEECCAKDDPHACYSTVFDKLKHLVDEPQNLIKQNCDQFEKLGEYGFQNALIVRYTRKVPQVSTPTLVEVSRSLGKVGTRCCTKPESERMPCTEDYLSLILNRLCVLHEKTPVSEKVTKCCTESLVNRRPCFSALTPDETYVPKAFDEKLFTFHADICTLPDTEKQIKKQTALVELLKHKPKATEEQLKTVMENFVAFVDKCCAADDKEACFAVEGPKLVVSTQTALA

B1: saratin (protein)
chain: EEREDCWTFYANRKYTDFDKSFKKSSDLDECKKTCFKTEYCYIVFEDTVNKECYYNVVDGEELDQEKFVVDENFTENYLTDCEGKDAGNAAGTGDESDEVDED
In assay [1], B1 registered an IC50 of saratin inhibition of MCP-1-induced human monocyte migration through filters coated with 1 mg/mL BSA (Boyden chamber) of 37 nM; a Saratin IC50, MCP-1-induced human monocyte migration through filters coated with BSA, coating conc. 1.0 as the table prints it (the text gives 1.1 nM for 0.01 mg/mL BSA) (Boyden chamber) of 1.1 nM; a Saratin IC50, MIP-1alpha-induced human T lymphocyte migration through filters coated with BSA, coating conc. 1.0 (Boyden chamber) of 185 nM. Moreover, in the assay with collagen type IV, the Saratin IC50, MCP-1-induced human monocyte migration through filters coated with Collagen IV, coating conc. 0.01 (Boyden chamber) came out at 0.172 nM; the Saratin IC50, MCP-1-induced human monocyte migration through filters coated with Collagen IV, coating conc. 1.0 (Boyden chamber) turned out to be 0.0623 nM; the Saratin IC50, MIP-1alpha-induced human T lymphocyte migration through filters coated with Collagen IV, coating conc. 0.01 (Boyden chamber) is 6.86 nM; the Saratin IC50, MIP-1alpha-induced human T lymphocyte migration through filters coated with Collagen IV, coating conc. 1.0 (Boyden chamber) was found to be 0.0079 nM. In the assay with fibronectin, the Saratin IC50, MCP-1-induced human monocyte migration through filters coated with Fibronectin, coating conc. 1.0 (Boyden chamber) was 19.4 nM and the Saratin IC50, MIP-1alpha-induced human T lymphocyte migration through filters coated with Fibronectin, coating conc. 1.0 (Boyden chamber) came out at 3.69 nM.
